Patent US20130337528A1

Molecular target: goat IgG (goat)
Experiment: binding capacity used to set the particle load for goat serum; method not stated
Settings: scale: mg IgG per 5 g wet weight polymer particles

IgG binding capacity: > 220
Substance: PhaC-(GB1)3 polymer particles (PHB polymer particles displaying (GB1)3, from plasmid pET-14b PhaC-(GB1)3) (from UniProt P23608 1-589; P06654 228-282; P06654 228-282; P06654 228-282)
